{"source": "patent US7214663B2", "about": "“Tripeptide prodrug compounds” (Medarex, Inc., priority 2001, dated 2007)", "key": {"[1]": {"test": "Metabolism and clearance of Suc-Leu-Ala-Leu-Dox in mice (plasma, urine)", "format": "in vivo, mouse", "settings": "after single intravenous 117 mg/kg Suc-Leu-Ala-Leu-Dox", "experimental": "Plasma samples of 100 μl were transferred to microcentrifuge tubes (1.5 mL) and an internal standard of daunorubicin (20 μL at 0.5 mg/ml) was added together with acetonitrile (400 μl). The tubes were capped and briefly vortexed followed by centrifugation at 14,000 rpm. 420 μl from each tube was removed and dried in vacuo. Each sample was reconstituted in 65 μl 20 mM aqueous ammonium formate (AF) pH 4.5 buffer containing acetonitrile (20%) prior to analysis by reverse phase liquid chromatography in combination with tandem mass spectrometry (LC MS/MS).\nUrine was collected at 2 and 24 hours post administration from pairs of mice in metabolic cages. Urine samples were diluted with AF buffer containing acetonitrile (20%) to give a target analyte concentration within the practical range of the LC MS/MS assay. 30 μl of each diluted sample was placed in a micro centrifuge tube (1.5 ml) and an internal standard of daunorubicin (20 μL at 0.5 mg/ml) was added together with 50 μl of AF buffer containing acetonitrile (20%). Each sample was then analyzed by LC MS/MS.\nAn Agilent HP1100 HPLC with DAD detector and Chemstation software was coupled to a PE Sciex API 365 mass spectrometer with an electrospray ion source. HPLC was performed on a TSK-Gel Super ODS, […], 4.6×50 mm (TosoHaas) reversed phase column equipped with a […] C18 guard disc (Higgins Analytical) and stainless steel frit (Upchurch Scientific). Chromatography was performed at room temperature. The flow rate was 0.5 ml/min. Injection volume was 50 μl. Gradient elution was performed using a mobile phase of AF buffer with increasing amounts of acetonitrile. The API 365 was operated at 365° C. in a multiple reaction monitoring mode, set to monitor specific analyte parent-daughter ion pairs. Integration of chromatograms was performed by MacQuan software (PE Sciex) and quantitation of each analyte obtained by comparison to previously obtained calibration curves. Daunorubicin was used as an internal standard in all cases."}, "normal ICR mice": {"tested_on": "normal ICR mice", "test": "Single dose Maximum Tolerated Dose (SD-MTD) study, 49 days, ICR mice (Examples 5 and 6)", "experimental": "In a second single dose Maximum Tolerated Dose (SD-MTD) study, groups of five normal ICR mice were administered intravenous bolus doses of Suc-Leu-Ala-Leu-Dox. The mice were observed daily for 49 days and body weights measured twice weekly.\nIn a second single dose Maximum Tolerated Dose (SD-MTD) study, groups of five normal ICR mice were administered intravenous bolus doses of Suc-Leu-Ala-Gly-Dox. The mice were observed daily for 49 days and body weights measured twice weekly."}, "[2]": {"tested_on": "LNCaP (prostate carcinoma) cells", "settings": "48 hours, 3H-thymidine incorporation", "experimental": "(§1) Adherent cells, LNCaP (prostate carcinoma), HT-29 (colon carcinoma) and PC-3 (prostate carcinoma), were cultured in DMEM media containing 10% heat inactivated fetal calf serum (FCS). On the day of the study the cells were detached from the plate with a trypsin solution. The collected cells were washed and resuspended at a concentration of 0.25×10^6 cells/ml in DMEM containing 10% FCS. 100 μl of cell suspension were added to 96 well plates and the plates were incubated for 3 hours to allow the cells to adhere. […] The plates were then incubated for 24 hours, pulsed with 10 μl of a 100 μCi/ml ^3H-thymidine and incubated for an additional 24 hours (total incubation time 48 hours). The plates were harvested using a 96 well Harvester (Packard Instruments) and counted on a Packard Top Count Counter. Four parameter logistic curves were fitted to the ^3H-thymidine incorporation as a function of drug molarity using Prism software to determine IC50 values.\n(§2) Prostate carcinoma cells, LNCaP and PC-3 cells or colon carcinoma cells HT-29, were incubated with increasing concentration of the indicated compounds for 48 hours and cellular proliferation was measured using the ^3H-thymidine assay."}, "[3]": {"tested_on": "PC-3 (prostate carcinoma) cells", "settings": "PC-3, 48 hours, 3H-thymidine incorporation", "experimental": "as §1, §2"}, "[4]": {"tested_on": "HT-29 (colon carcinoma) cells", "settings": "HT29, 48 hours, 3H-thymidine incorporation", "experimental": "as §1, §2"}, "[5]": {"tested_on": "human colon carcinoma (LS174T)", "test": "LS174T xenograft efficacy study", "procedure": "Healthy young female nude mice were subcutaneously implanted with chunks of LS174T. […] Tumor size and body weights were measured twice weekly for up to 60 days."}}, "note": "pIC50: −log10 of the molar value.", "data": [{"smiles": "COc1cccc2c1C(=O)c1c(O)c3c(c(O)c1C2=O)C[C@@](O)(C(=O)CO)C[C@@H]3O[C@H]1C[C@H](NC(=O)[C@H](CC(C)C)NC(=O)[C@H](C)NC(=O)[C@H](CC(C)C)NC(=O)CCC(=O)O)[C@H](O)[C@H](C)O1", "note": "[Suc-Leu-Ala-Leu-Dox]", "values": [{"measurement": "Plasma 1 hr, percent of administered dose", "setting": "[1]", "value": 1.49, "unit": "%"}, {"measurement": "Urine 2 hr, percent of administered dose", "setting": "[1]", "value": 9.31, "unit": "%"}, {"measurement": "Urine 24 hr, percent of administered dose", "setting": "[1]", "value": 2.11, "unit": "%"}, {"measurement": "dose excreted at 2 h", "setting": "[1]; female, mouse, in vivo, read-out: Urine 2 hr, percent of administered dose", "value": 9.31, "unit": "%"}, {"measurement": "acute toxicity, within 24 hours", "setting": "normal ICR mice; any dose level", "value": "no acute toxicity"}, {"measurement": "SD-MTD (mg/kg Dox =)", "setting": "normal ICR mice; doxorubicin equivalent, intravenous bolus, ICR mice, Day 49", "value": 42, "unit": "mg/kg Dox ="}, {"measurement": "dose groups with toxicity (partial hind-end paralysis, body weight loss >20%)", "setting": "normal ICR mice; single intravenous bolus, 49 days", "value": "≥ 94", "unit": "mg/kg"}, {"measurement": "pIC50", "setting": "[2]", "value": "~6.00"}, {"measurement": "pIC50", "setting": "[3]", "value": 4.30}, {"measurement": "pIC50", "setting": "[4]", "value": 4.44}, {"measurement": "Mean Day of Survival", "setting": "[5]; 52 mg/kg every 5 days for 5 doses", "value": 20, "unit": "days"}, {"measurement": "Mean Day of Survival", "setting": "[5]; 63 mg/kg every 5 days for 5 doses", "value": 32, "unit": "days"}, {"measurement": "anti-tumor activity in LS174T xenograft", "setting": "[5]; doxorubicin-insensitive model", "value": "decreased the rate of tumor growth considerably"}]}]}
